Experimental data published in article PMC8857485, “Prostate secretory protein 94 inhibits sterol binding and export by the mammalian CAP protein CRISP2 in a calcium-sensitive manner” (The Journal of Biological Chemistry, 2022).
Like-named read-outs stand apart in the source and are kept apart here.

How the values were obtained:
[1] = target: cholesterol sulfate; experiment: microscale thermophoresis; details: measurements in triplicates
[2] = target: T1, prostate secretory protein of 94 amino acids (PSP94), C-terminal polyhistidine tag (human, UniProt P08118 21-114); experiment: MST
T1 chain: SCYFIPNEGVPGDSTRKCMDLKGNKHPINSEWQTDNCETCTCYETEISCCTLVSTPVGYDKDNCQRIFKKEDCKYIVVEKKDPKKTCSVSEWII

[3] = target: T1, prostate secretory protein of 94 amino …; experiment: MST
[4] = system: sterol export by CAP proteins (Pry1, CRISP2, CRISP3); experiment: In vivo sterol export assay ([14C]cholesteryl acetate export) in yeast; assay type: cell-based, Saccharomyces cerevisiae; details: co-expression with CRISP2 in quadruple mutant yeast
Excerpt: To test whether expression of PSP94 would affect the function of Pry1 in sterol export, we expressed PSP94 fused to the N-terminal signal sequence from Pry1 (amino acids 1–19) from a constitutive alcohol dehydrogenase promoter (ADH1) to direct the protein into the yeast secretory pathway. This PSP94-containing plasmid was then transformed into heme-deficient yeast cells lacking the sterol deacetylase Say1 (hem1Δ say1Δ). This strain is able to take up radiolabeled [^14C]cholesterol, acetylate it in an alcohol acetyltransferase 2 (Atf2)-dependent pathway, and secrete the resulting radiolabeled cholesteryl acetate back into the culture medium ([29]). […] To test whether expression of PSP94 would affect the synthesis or secretion of Pry1, CRISP2, or CRISP3, we coexpressed FLAG-tagged PSP94 with hemagglutinin (HA)-tagged Pry1, CRISP2, or CRISP3, separated yeast cells from the culture medium, precipitated proteins from both fractions with trichloroacetic acid (TCA), and detected the tagged proteins by Western blotting.
The sterol export assay was performed as described ([29]). […] Extracted radiolabeled lipids were quantified by scintillation counting, and volumes corresponding to 10,000 cpm (counts per minute) were dried. […] TLC plates were then exposed to phosphorimager screens, and radiolabeled lipids were visualized and quantified using a phosphorimager. […]

[5] = cholesterol sulfate titrated (x axis Cholesterol sulfate [µM])

CRISP2 (cysteine-rich secretory protein 2), C-terminal polyhistidine tag (from UniProt P16562) L98G; Y99P
Kd ([1]; in the presence of PSP94): 0.5 µM | Kd [1, 5]: 2.2 µM

CRISP2 (cysteine-rich secretory protein 2), C-terminal polyhistidine tag (from UniProt P16562) N97P; L98G
Kd [1, 5]: 3.8 µM

CRISP2 (cysteine-rich secretory protein 2), C-terminal polyhistidine tag (from UniProt P16562) N97P; Y99P
Kd [1, 5]: 2.7 µM

B1: CRISP3 (cysteine-rich secretory protein 3), C-terminal polyhistidine tag (natural protein)
chain: NEDKDPAFTALLTTQTQVQREIVNKHNELRRAVSPPARNMLKMEWNKEAAANAQKWANQCNYRHSNPKDRMTSLKCGENLYMSSASSSWSQAIQSWFDEYNDFDFGVGPKTPNAVVGHYTQVVWYSSYLVGCGNAYCPNQKVLKYYYVCQYCPAGNWANRLYVPYEQGAPCASCPDNCDDGLCTNGCKYEDLYSNCKSLKLTLTCKHQLVRDSCKASCNCSNSIY
modifications: RED-tris-NTA fluorescent label on the His tag
Kd [2]: 46 nM

B2: CRISP2 N97P L98G (protein)
chain: KDPAFTALLTTQLQVQREIVNKHNELRKAVSPPASNMLKMEWSREVTTNAQRWANKCTLQHSDPEDRKTSTRCGEPGYMSSDPTSWSSAIQSWYDEILDFVYGVGPKSPNAVVGHYTQLVWYSTYQVGCGIAYCPNQDSLKYYYVCQYCPAGNNMNRKNTPYQQGTPCAGCPDDCDKGLCTNSCQYQDLLSNCDSLKNTAGCEHELLKEKCKATCLCENKIY
modifications: limits not printed: mature chain by convention (pelB secretion in E. coli, C-terminal His tag left out); residue numbers match the precursor
Kd [3]: 4 nM

B3: CAP domain of Pry1 (Pry1^CAP), C-terminal polyhistidine tag (domain or fragment)
chain: SASSSDSDLSDFASSVLAEHNKKRALHKDTPALSWSDTLASYAQDYADNYDCSGTLTHSGGPYGENLALGYDGPAAVDAWYNEISNYDFSNPGFSSNTGHFTQVVWKSTTQVGCGIKTCGGAWGDYVICSYDPAGNYEGEYADNVEPLA
modifications: RED-tris-NTA fluorescent label on the His tag
Kd [2]: 63 nM

B4: PSP94^F24G: point mutant version of PSP94 (F24 corresponds to F4 in the processed protein), impaired binding to CRISP3 (protein)
chain: SCYGIPNEGVPGDSTRKCMDLKGNKHPINSEWQTDNCETCTCYETEISCCTLVSTPVGYDKDNCQRIFKKEDCKYIVVEKKDPKKTCSVSEWII
modifications: left off: polyhistidine, C-terminal, state not stated
effect on sterol binding and export by CRISP2 in vivo [4]: did not inhibit sterol binding and export
